Measured values taken from FireProtDB (doi:10.1016/j.jmb.2004.06.079).

B1: Malate dehydrogenase, P80040 (parent)
chain: MRKKISIIGAGFVGSTTAHWLAAKELGDIVLLDFVEGVPQGKALDLYEASPIEGFDVRVTGTNNYADTANSDVIVVTSGAPRKPGMSREDLIKVNADITRACISQAAPLSPNAVIIMVNNPLDAMTYLAAEVSGFPKERVIGQAGVLDAARYRTFIAMEAGVSVEDVQAMLMGGHGDEMVPLPRFSTISGIPVSEFIAPDRLAQIVERTRKGGGEIVNLLKTGSAYYAPAAATAQMVEAVLKDKKRVMPVAAYLTGQYGLNDIYFGVPVILGAGGVEKILELPLNEEEMALLNASAKAVRATLDTLKSL

Variants of: B1
Settings: Chloroflexus aurantiacus (strain ATCC 29366 / DSM 635 / J-10-fl), Thermal, CD, structure 1GUY, whole UniProt chain shown
[1] = pH 6, potassium phosphate 10 mM
[2] = pH 7.5, potassium phosphate 10 mM

Row | Variant | Tm (pH 4.4, sodium acetate 10 mM) [°C] | change of melting temperature, mutant - wild type (higher = more stable) (pH 4.4, sodium acetate 10 mM) [°C] | Tm [1] [°C] | change of melting temperature, mutant - wild type (higher = more stable) [1] [°C] | Tm [2] [°C] | change of melting temperature, mutant - wild type (higher = more stable) [2] [°C]
1 | E165K | 85 | 4.6 | 91.4 | 12 | 91.7 | 23.9
2 | E165Q | 85.8 | 5.4 | – | – | 91.4 | 23.6
